Data as given in patent publication US20230374144A1 (STAIDSON BEIJING BIOPHARMACEUTICAL, published 2023).
Numbering of substitutions follows the chain as printed.

B1: C27-36-36 (antibody, human IgG4, V domains shown)
VH: EVQLLESGGGLVQPGGSLRLSCAASGFTLSSYAMHWVRQAPGKGLEYVSGISPSGVSTYYANSVKGRFTISRDNPKNTLFLQMSSLRAEDTAVYYCVRVKVKYRGGMDVWGQGTTVTVSS
VL: EIVLTQSPGTLSLSPGERATLSCRASQNISTAYLAWYQQKPGQAPRLLIYGTSRRATGIPDRFSGSGSGTDFTLTISRLEPEDFAVYYCQLYGATSVTFGQGTKLEIK
B2: C27-55-55 (antibody, human IgG4, V domains shown)
VH: B1 VH with S54T, V56G, V101G, K102R
VL: B1 VL with A94T, T95S
B3: C27-56-56 (antibody, human IgG4, V domains shown)
VH: B1 VH with G55S, V56T, K102L
VL: B1 VL with N28S, I29V, T31S, T95S
B4: Dupilumab (antibody, V domains shown)
VH: EVQLVESGGGLEQPGGSLRLSCAGSGFTFRDYAMTWVRQAPGKGLEWVSSISGSGGNTYYADSVKGRFTISRDNSKNTLYLQMNSLRAEDTAVYYCAKDRLSITIRPRYYGLDVWGQGTTVTVSS
VL: DIVMTQSPLSLPVTPGEPASISCRSSQSLLYSIGYNYLDWYLQKSGQSPQLLIYLGSNRASGVPDRFSGSGSGTDFTLKISRVEAEDVGFYYCMQALQTPYTFGQGTKLEIKR
B5: C27-52-52 (antibody, human IgG4, V domains shown)
VH: B1 VH with P53S, V56S, V101P, K102A
VL: B1 VL with N28G, I29V
B6: C27-53-53 (antibody, human IgG4, V domains shown)
VH: B1 VH with P53S, S54N, V56G, K100F, K102R
VL: B1 VL with N28D, I29A, T31N, A94S, T95S
B7: C27-58-58 (antibody, human IgG4, V domains shown)
VH: B1 VH with G55S, V56N, K102R
VL: B1 VL with N28D, T31S
B8: C27-67-67 (antibody, human IgG4, V domains shown)
VH: B1 VH with S54T, G55S, V56A, V101G, K102R
VL: B1 VL with N28G, I29V, T31S, A94R, T95S
B9: C27-54-54 (antibody, human IgG4, V domains shown)
VH: B1 VH with P53H, V56T, K100R, K102L
VL: B1 VL with N28D, I29V, T31S

target: T1, recombinant human IL-4Rα (extracellular domain, tagged) (human, UniProt P24394 26-232); experiment: SPR, Biacore T200; antibody (human IgG4) on the sensor chip, human IL-4Rα at 0.625-12.5 nM
T1 construct: it is written second here only for want of that; also called hIL-4Rα; not shown: His-tag or other conventionally used tag
Description: The binding affinity of the anti-IL-4Rα antibodies (reformatted as human IgG4) to human IL-4Rα was characterized using Biacore T200 (GE). The full-length anti-IL-4Rα antibodies were stabilized on sensor chip CMS. The affinities for human IL-4Rα at various concentrations were measured. […] Using the SPR technology, the association and dissociation rates were measured, and binding affinity was determined.

Binder | Kd [pM] | koff [s⁻¹] | kon [M⁻¹ s⁻¹]
B1 | 2560 | 0.000351 | 137000
B2 | 2470 | 0.000379 | 154000
B3 | 2380 | 0.000201 | 84500

target: T2, human IL-4Rα on cells (human, UniProt P24394 26-825); experiment: cell-based or functional assay

Binder | IC50(nM), inhibition of IL-13 (10 ng/mL) dependent TF-1 cell proliferation [nM]
B4 | 0.301

target: T2, human IL-4Rα on cells; experiment: cell-based or functional assay; remark: another data set of the same source

Binder | IC50(nM), inhibition of hIL-13 (20 ng/mL) dependent CD23 upregulation on B cells in human PBMCs [nM]
B4 | 2.8

target: T2, human IL-4Rα on cells; experiment: cell-based or functional assay; remark: another data set of the same source

Binder | IC50(nM), inhibition of TARC release in human PBMCs induced by hIL-4 (32 ng/mL) [nM]
B4 | 0.63

target: T2, human IL-4Rα on cells; experiment: cell-based or functional assay; remark: another data set of the same source

Binder | IC50(nM), inhibition of IL-4 (2 ng/mL) dependent TF-1 cell proliferation [nM]
B4 | 0.253

target: T2, human IL-4Rα on cells; experiment: cell-based or functional assay; remark: another data set of the same source

Binder | IC50(nM), neutralization of hIL-13 (4 ng/ml), HEK-Blue IL-4/IL-13 STAT6-SEAP reporter cells [nM]
B4 | 0.136

target: T2, human IL-4Rα on cells; experiment: cell-based or functional assay; remark: another data set of the same source

Binder | IC50(nM), inhibition of TARC release in human PBMCs induced by hIL-13 (200 ng/mL) [nM]
B4 | 0.0323

target: T3, IL-4R with mouse Fc-tag (human, UniProt P24394 26-232); experiment: competitive ELISA: antibody dilutions with 0.5 µg/mL IL-4R-mouse Fc on plate-captured biotinylated IL-4, anti-mouse-Fc-HRP
T3 construct: not shown: mouse Fc-tag
Description: Competitive ELISA: The second assay was designed to identify the anti-IL-4Rα antibodies that were capable of inhibiting the binding of hIL-4 to hIL-4Rα, as measured by competitive ELISA. Briefly, a 96-well plate was coated with 100 μL, 2.5 μg/mL SA (Streptavidin) solution, and incubated overnight at 4° C., followed by washed with TBST. Biotinylated IL-4 with the final concentration of 2 μg/mL was added into the plate and incubated at 37° C. for 1 hour. Then the plate was washed with TBST. The anti-IL-4Rα antibody samples were first diluted to 10 μg/mL, and 1004, of the sample was added to the first row of wells. 10 μg/mL anti-IL-4Rα antibody samples were then serially diluted at a 1:2 ratio and added to each of the remaining rows of wells. 504 of 0.5 μg/mL IL-4R with mouse Fc-tag was added to each well. After incubating for 1 hour at 37° C., the wells were washed with TBST 6 times. 100 µL of anti-mouse-Fc-HRP (1:10,000) was then added to each well and incubated for 1 hour at 37° C. The wells were washed with TBST 6 times before adding 1004/well of TMB, and incubated for 5-10 minutes at 37° C. 2M H₂SO₄ was used to stop the reaction. The ELISA results (OD450) were read, and the binding curves were generated by GraphPad Prism 5 software (GraphPad Software). Reference antibody Dupilumab (Regeneron, anti-IL-4Rα antibody) and AMG317 (Amgen, anti-IL-4Rα antibody) were used as positive controls, Human IgG4, kappa Isotype Control (Cat #HG4K, Sino Biological Inc.) was used as negative control, abbreviated as Human IgG4 in FIG. 1.

Binder | IC50 [µg/mL]
B4 | 0.0838

target: T2, human IL-4Rα on cells; experiment: cell-based or functional assay; remark: another data set of the same source

Binder | IC50(nM), neutralization of hIL-4 (1.2 ng/ml), HEK-Blue IL-4/IL-13 STAT6-SEAP reporter cells [nM]
B4 | 0.165
B5 | 0.476
B6 | 0.293
B7 | 0.41
B8 | 0.076
B9 | 0.34
B1 | 0.125
B2 | 0.0853
B3 | 0.15

target: T2, human IL-4Rα on cells; experiment: cell-based or functional assay; remark: another data set of the same source

Binder | IC50(nM), inhibition of hIL-4 (1 ng/mL) dependent CD23 upregulation on B cells in human PBMCs [nM]
B4 | 0.119
